Experimental findings from article PMC12485048 are described below.

This test has as its target Ca2+/calmodulin-dependent protein kinase II (CaMKII) (mouse (endogenous in striatum)) (UniProt P28652). The test can be described thus: co-IP; endogenous proteins in mouse striatum lysate (20 mM Tris-HCl pH 7.4, 50 mM NaCl, 0.5% NP-40, 10 mM HEPES, 0.5 mM EDTA); 2 μg primary antibody on Protein A/G or Protein G magnetic beads, lysate at 4 °C overnight; western blot; for CaMKII–PPP1CC, WT and Sh3rf2 KO striatum compared. On the technique in general: In western blotting, separated proteins are transferred to a membrane and probed.
Chain of UniProt P28652 (P28652 whole entry): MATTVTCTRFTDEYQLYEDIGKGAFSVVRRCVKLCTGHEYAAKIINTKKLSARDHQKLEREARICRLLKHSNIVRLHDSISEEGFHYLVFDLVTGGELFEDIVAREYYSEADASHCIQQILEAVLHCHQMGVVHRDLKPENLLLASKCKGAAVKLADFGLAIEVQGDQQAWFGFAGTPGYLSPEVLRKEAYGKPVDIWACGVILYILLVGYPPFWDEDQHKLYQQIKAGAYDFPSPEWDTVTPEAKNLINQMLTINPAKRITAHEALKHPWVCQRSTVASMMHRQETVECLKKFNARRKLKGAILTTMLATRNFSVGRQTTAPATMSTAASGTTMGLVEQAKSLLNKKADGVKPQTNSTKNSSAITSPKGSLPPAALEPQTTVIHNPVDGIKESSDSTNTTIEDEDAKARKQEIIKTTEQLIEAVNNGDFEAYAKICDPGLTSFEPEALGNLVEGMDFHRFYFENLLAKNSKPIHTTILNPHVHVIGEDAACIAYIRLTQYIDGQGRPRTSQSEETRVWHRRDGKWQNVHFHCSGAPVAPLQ

The substance “PP1 catalytic subunit gamma (PPP1CC) (from UniProt P63087 1-323) (enzyme)” yielded a reduction of CaMKII–PPP1CC co-precipitate in Sh3rf2 KO against WT striatum of 80%.
